Experimental data published in patent US20210113687A1, “METHODS FOR TREATING INFLAMMATION” (NEW YORK UNIVERSITY, priority 2013, published 2021).

Target: netrin-1 secreted by mouse macrophages (conditioned medium of oxLDL-, CoCl2-, HIF-1alpha- or palmitate-treated macrophages) (mouse) (UniProt O09118)
Assay: cell-based or functional assay

recombinant rat UNC5b-Fc chimera (cat #1006-UN, R&D Systems) (from UniProt O08722 27-373) (Fc fusion)
inhibition of migration of naive macrophages to CCL19 by Ntn1+/+ conditioned medium with UNC5b-Fc: 25%
